B1: CYPDN29: cytochrome P450 homolog A0A068SBU5 from Lichtheimia corymbifera, codon-optimized (protein, listed as Lichtheimia corymbifera)
chain: MYTLVSFLKDQNIIAVLKNAIHAQQQGTTASSITILSLAVAITTFAVHRIRLYSVKEHGVPLVPYVLPFIGSSPEYRKDPKAFLEKWTAKFGPVFRAHIFGRVYTIISGHYVREVFLNEDFSFEVGMGKTFDGWLITDTKKSELFSTPLVRSMVMKHLAVDVKNYTPRAVEHLTIAAREMLGDIGESKELPHLYPLIQHMVSTAIASILVGLKICKDKDLLETFKNVAVDIGSELNPDSYLYEAFPTISRLRQWYLGKYGKAINKHQEHMLRVLGPEIDERLAAMERGDGGWERPEDILQGILETAKLTSDHPQRYMVPIKWFLILVFASIHTTSQNTTVAMYRLLQHPEVIDELLEEQNQVFEKHHGSNYDDHDITKLLTGEVIKDLVKLDSVCREAMRISSFYAELPHTYIGKSPLTMSNGTIINPGDDVLINGYTNHHDPDIQIDGGGDYAEFKPFRFVEKGRQSTRIGDDYLIFGQGKHACPGRWFAMQEMKTTISFLIRQYIITAKGDIMFLKGHRQKIPMGQVIFQKR
B2: CYPDN27: cytochrome P450 homolog A0A077WLY1 from Lichtheimia ramosa, codon-optimized (protein, listed as Licthheimia ramosa)
chain: MPSLIPKNASDAIEQYISRLKTMDRRHMGIIAGSVAVVSLYTFYRHLTRSRDDIPLVPYTWPLIGSTPSFNRDPVAFVEKWSQEYGPVFRAHLQGRIQTIIAAEYVRDIFMNSDFDFLFAVNKRFDPHLLADIDDNTFTTEMLRKVVMKLTTQLKSYTPRAVEFLDVGRNEFLSHFPAGPVHLPHLYPLIQHMVGKASAAIFAGTKLASNPEVVESFKNITLEVGAEIAVDSVFLERYWGLNRFRMWLMGKFSKSMKRHHRVLKDALRPEIKDRIEASSDPSRERPDDMLQIIIESYYTERRGESVDDLTEDLVKWLISLIFAAIHTTSENSTVVLYRILSKPDVVEELLEEQREVLVRHGISPDEKDPSKMFTGAVIKDLVKLDSACREGMRMRNDYLTLGHTYLGKKPITLSCGAVIKPGEDVIINTWYNHRNNKIQKIQGDDYSNYNPFRFVGSDRQAARIGDDFLIFGEGKHACPGRWFALQEMKTIISFLIRDYKMAPEGPITFPKNPKMTLPMGQVILESRH
B3: CYPDN20: cytochrome P450 homolog A0A163A6R1 from Phycomyces blakesleeanus, codon-optimized (protein, listed as Phycomyces biakesleeanus)
chain: MCLFFCKKVYDFTAVPYELKKFPNIPFFYFVKSILSVESVENRTKRLVLPLLHKNNGFYVSRFPFYWTVFTTDPDAVQYLLMKGEIFPKDTRFTSAVSKDSLIIRLFGSSNVAFISGEPLKHQCRTMNPAFRRTAPVNIFGRLIPDMFRLIDKSDGDILIVNLLQRMTFDALGKALFGFDFKTMKEDNSAWMTAYSDAMSGVTAPVLNIIPSLEYILRYFYPNYTKAKNGVDKLNRLILELVNKKKQELEESMPQSCSNNNNGDTDGDAYDQEKDLLTLILEAEMKDNKSSGSDDLRANMATFIMAGHETTASSVSFCIYHMVINKDVRDKARREALDILGYDDFISPPTFDECKRVNYINMVVKEALRLCTPGGLLFERIATEDVFLSGVFIPKGTRISVDIEALHKNPAIWKNPSVFDPERFSKGGEHEQHRGITWAPFSDGNRKCLGINFSMTEQQVILLMLLKHYEWDLSENSIHNNGMVYDNVFSFAPKTLSIKFHKRH
B4: CYPDN21: cytochrome P450 homolog XM_018432503 from Phycomyces blakesleeanus, codon-optimized (protein, listed as Phycomyces biakesleeanus)
chain: MLAKKVNGYAGFTLDAIQTIYFNRAIKLVRPPKALSHIPHVPYFSYMSSLIKKENTISRNKRFANKLFEDPESNGLYLRPNVKGWEVVVTRPEDAKKLLFKSDIFPKADFTSGIDGTILSKFSRGPNLLFTTGAHWKAQRMVANPAFHRSAPVKLFGELTQKLFRVMDNRANKTVDITRLMEAWALDAIGLAGFDFDFNAIENPNSSWVRIYERVDKALVHPFYSFFPKADKYLLWVLPNRKQAHTDLDIFLKMIDNVIIAKKKALHENKSNKHLENSEKDLLTLMLESEAKGSTLSAKELRSNMCVFFAAGHETTANSLAYAIYFMAVNPDVQCKAREEAFKVLGDAQEDIMPTIEQTKSMDYINAVIKETLRSHSPALGTFARKATKDTELGGVLIPKDTMISMDIFNLHHNPNVWNNPDEFDPSRFLPGGEAEKQINNGFSWIPFGTGARQCIGMNFSLIEQRVMLSMMLRKFAWSLPEDSIHKDYLHTTNLVISSAKDLNINFEKLY
B5: CYPDN22: cytochrome P450 homolog XM_023609077 from Rhizopus microsporus, codon-optimized (protein, listed as Rhizopus microsporus)
chain: MAISFLYREGPAERLKRLKLPAMRKGNGFYLSRVPFCWTVYVANPIAAKQLLLKAENFPKSHFLMVGKDSPFVQFLGPDNVVNSNGENWKKQRKVMNPAFHRSMPVKTIAGVVLTLFAVIDKYKGKVPVTSTMQEFTLDVLGLAIFNFDFGSLKGDAKKWRAEYKLVMLFDPVTNVFTGFDFLLRYIYPKRIKGANAVNNLNKLFDQLVKQKRLEVQSGVHANKPQNEKDLLTLMLEAEQRGEAMTTDMEMRHNVAVFFLAGHESTAHVLSFTLYFLAKNKYVQQKLREEVSRVMGRKSVDVAPTLEELRQMEYLYAVIKESLRLCSIFDVLILRDAVEDMYLDDTFIPKGTRITIDVSAIQRDPKVWNNPDDFIPERFMEGGEAEGHEGMTWLPFGGGARQCIGMNFSLTEQKVALAMLVQRYDIDVPKDSIHYEDIAYERPFYLAPQSLELTFTKLH
B6: CYPDN28: cytochrome P450 homolog A0A1X2HYB6 from Absidia repens, codon-optimized (protein, listed as Absidia repens)
chain: MLTQYIHQFFNNFDQKKTMDQLQSVASSKDGVIGIATALILISGVAAYKSSTVERGCPQVPCGTFSFGSTSEYRENPVAFVKKWEEKLGPVFGAQLFGQYATIVSGPQVREIFSNENFSFMAGIQRDFDTYLLANGGSIHDLPPHVVSGGIKKNLSPKLPFYTSRVIEHLKIGLYEQCGVVPDEGKEFDHVYPFVQHMVAKASASVFVGPELAKDLNLVDSFKNMVLEVGSDMGPKPYLEHFPHLMRLRMWYIGKTSTNVKRHRDQLFAALVPQIDSRLKAMKEKDSNWDRPNDFLQDILETDDCPPHMDIYSYCVDWMTQIIFAALHTTSENGTIVLYRLLDNPKVLEELYEEQNAVLEEAGYDDTVGPEVFTREILNKFVKMDSVIRESCRLRNDYIGLPHTNVGKKTIVLSGGAMIRPGENAFVNFYSNHRDEKLQKSGMNANNFEPYRFVDQGKNSTKIGDDFMFFGMFKHACPGRWFAIQEIKTILAMLIRSYKMSAIDSVVFPTSDYTRIPTGRFKIVPRK
B7: CYPDN18: cytochrome P450 homolog A0A0C9MNJ6 from Mucor ambiguus, codon-optimized (protein, listed as Mucor ambiguus)
chain: MYSTASYNQTLERVVSVVRKNKTSYIGMAILCVVLQQIYSSFAVPPKHLRRFPKVSFMELMKSFYKKESVMNRNKRLVTPLTNAGHGFYISRIPLDWTIYVTDPIAAKTLLLKTDNFPKSHAIFGALGESSPVVKFMGNENVAVSNDILWRKQRKIMNPAFHRSQPVKVFGGVMPDLFALIDQDPEHVFITPKIKSFALDALGLSAFGFDFQSLKNDPEGWTSKYNTVVSSLFNPFVNLFAKCDFLIKYISAERRRVIKVTDEFNAMLSNLADKRRQEIMNGEKKNIAENEKDLLTLMIEADTREGVETTTTELRHNMAIFFLAGHDTTANTLALCLYQLAKHKHVQKKARQEVLDILGDDPWDVAPSLEDLKKLNYLNMVIKENLRRNGPVDNLMSRDTQQDINLNGTFIPKGSKVVINVASIHLNPKIWHNPESFIPERFEQGGEFDSHDGFTWLPFSNGSRQCLGLNFSLTEQRVALCMLLKRYEIDIPKDSIHYDEIVFDKAFTFAPQSLELSFKKRY
B8: CYPDN30: cytochrome P450 homolog A0A1X2H4N2 from Syncephalastrum racemosum, codon-optimized (protein, listed as Syncephalastrum racemosum)
chain: MNALLQRQDKMRDFLNTREGVYGITAAVAVVLISAYSLRRTVYTSRRKDEIATVPYKLPLKGSTEEYRADPRAFVEKYAKMYGPVYRAYLFGEMMTIVSDSYVREIFLNDNFNFFQAVKDRFDMVKLCNCANDEGHGIADIVKRCLNPRLDMYTERVNEQLEEASKEILTEVDTKGSQELMHMYILVQHMVARASATVFVGPELAKNSELIDSFKNMVIQVGSQLRPNPWLEPFPRLNSLRMWYIGKTSPVVRKHRLQLRSAVKPSIDDRLARQKSQGNAFQRPDDLLQDIIERHPEAKTKSDIYDYVVDTLTALIFAALHTTSENSTVVLYRLLQHPELMEELVAEQDAVLLEHGLPKDSSARVMTRQMIKKFEKLDSVCRESFRLRNDYLGLPHTYEGKKDIVLSNGAIIKPGEKAIINLWGNHHSGNTPQSTSQDYFGFDPYRFVKQDKQATKISEDFLFFGLGKHACPGRFFAVQEAKVLISVLLRNYKLSPVDPPYFATDDTMKIPAGRIRIERR
B9: CYPDN24: cytochrome P450 homolog A0A077WFB8 from Lichtheimia ramosa, codon-optimized (protein, listed as Lichtheimia ramosa)
chain: MDNQTWSSVPGASFWKGKLVSGHYVREVFLNNDFDFLKGTGKRFDTLLLTDTTTQDVDIEVFRTVVMKHLTKEMKAYTPRVVQHLTAGGDEKLGDAKEPQELVHLFPLLQHMVAKASASIFVGTELASDDDVVETCKNIAIDIGSELGPGSYIMDAFPSLARLRMWYIGKFGKAINKHRQHLLRALGPVIDKRLAAAEKGGDWDRPQDILQDIIETINLTLDNPKRHILPVKWLLALFFASIHTTSENSTIVLYRIMQNPEIIDVLLEEQNQVLEKHYGSNIDYSDTTKLFTGEVIKELVKLDSLCREAMRARNSYLELPHTYVGKSRITLSCGAIIEPGHDVLINMWGNHRDAKIQRDTIGDHHDFKPFRFVGLDRQSTKIGDDFLMFGQGRHACPGRWFAIQEIKTIVSVLIRYYKLTPNGPITFPTHPRMPMPMGQVIIQRRQ

What follows are molecules tested on thebaine (assay: Demethylation of thebaine by new cytochrome P450 fungal and plant homologs co-expressed with CPRs in S. cerevisiae). Settings: 0.5 mM thebaine, SC or DELFT media pH 7, 72 h, 30° C.; co-expressed with Cel_CPR_co, Tp_CPR_5866, Tp_CPR_DN10898 or POR1.

Molecule | Northebaine production
B1 | +
B2 | +
B3 | +
B4 | +
B5 | +
B6 | +
B7 | +
B8 | +
B9 | +

Reference: US11781164B2, “Demethylation of reticuline and derivatives thereof with fungal cytochrome P450” (priority 2017, dated 2023)
